# Source: the DeepSol protein solubility set
# Experiment: soluble on expression in E. coli; label from the status in PepcDB or PDB records
row,Sequence,soluble on expression in E. coli
1,MALFFRTRDRPLRPGDPYPLGSNWIEDDDGVNFSLFSENAEKVELLLYSLTNQKYPKEIIEVKNKTGDIWHVFVPGLRPGQLYAYRVYGPYKPELGLRFNPNKVLIDPYAKAINGSVIWNDAVFGYKIGDQNQDLTYDERDSGEYVPKSVVINPYFEWDDEDFIKGKKVPLKDTVIYEVHVKGFTKLRLDLPENIRGTYEGLASEQMISYLKDLGITTVELMPVFHFIDQRFLTDKGLTNYWGYDPINFFSPECRYSSTGCLGGQVLSFKKMVNELHNAGIEVIIDVVYNHTAEGNHLGPTLSFRGIDNTAYYMLQPDNKRYYLDFTGTGNTLNLSHPRVIQMVLDSLRYWVTEMHVDGFRFDLAAALARELYSVNMLNTFFIALQQDPILSQVKLIAEPWDVGQGGYQVGNFPYQWAEWNGKYRDSIRRFWRGEALPYSEIANRLLGSPDIYLGNNKTPFASINYVTSHDGFTLEDLVSYNQKHNEANGFNNQDGMNENYSWNCGAEGPTNDQNVVICREKQKRNFMITLLVSQGTPMILGGDELSRTQRGNNNAFCQDNEITWFDWNLDERKSKFLEFVKKMIQFYRAHPAFRRERYFQGKKLFGMPLKDVTFYTLEGREVDEKTWSSPTQLVIFVLEGSVMDEINMYGERIADDSFLIILNANPNNVKVKFPKGKWELVISSYLREIKPEERIIEGEKELEIEGRTALVYRRIEL,soluble
2,SEMIGGDDTDTEMYGALVTAQSLRLRHLHHCRENQCTSVLVKYIQAPVHLVWSLVRRFDQPQKYKPFISRCTVNGDPEIGCLREVNVKSGLPATTSTERLEQLDDEEHILGINIIGGDHRLKNYSSILTVHPEMIDGRSGTMVMESFVVDVPQGNTKDDTCYFVESLIKCNLKSLACVSERLAAQDITNSIATFCNASNGYREKNHTETNL,soluble
3,MKECKKCKSNEYTNKQLVMMINECGHPLCKNCVDNIFALNSGNCHVCNRVLRKNNFREQIYEDPLIDKETFLRRKLRKIYNLKQDDFENLREFGDYQERFETVVYNLVFETNVNETNAEIQAFEEKHKEQIDRNKRRLDDDQKWIEDQLREERAMKARMTDHMEMDAKEQEAASAVTDTRKIMDELRDSNVAAEVILDRERKKQIEKELEEKEEQEKRKRRNKEMLQTRKRAAENMSFNTVIRVAGRAYVHQPLELVINGPPMPNVSEIEALGYLAHIRQPTAEYIAGGYTPMLGCSRALFEARIDLFSF,not soluble
4,MSLRIFKHQGCSAVKIRSTALVKGFRQSAPYVNAHRGKTMVVMLGGEAIADKNFPNIISDIALLHSLGVKVVLVHGARPQINQILEKNQRDTPYHKGVRITDESSLGLVMQAAGQLQHAITARLSMSLNNTPMAGTQLNVVSGNFIISQPLGIDEGVDYCHSGRIRRIDVEGINRMLDLGSIVLLGPIASSVTGECFNLLSEEVATQVAIKLKADKLIGFCPQQGIIDTKGNAIAELFPSDVERLVKSMEQECAPDDEECFSTMRFLRAALKACRAGVPRSHLVSYKEDGALIQELFSFDGIGTQIVMASAEQIRQATIDDIGGIFDLIRPLEEQGILVRRSREQLEQEIHKFTIIDKDGLVIGCSALYPYPEERMAEMACVAIHPEYRDGHRGLHLLVHSKHQAKQMGIRHLFVLTTHSTHWFREQGFNEVDVEALPMAKKSLYNYQRRSKILMLQLEGHHHHHH,not soluble
5,MVADSQPGHIDQIKQTNAGAVYRLIDQLGPVSRIDLSRLAQLAPASITKIVREMLEAHLVQELEIKEAGSRGRPAVGLMVETEAWHYLSIRISRGEIFLALRDLSSKLVVEECLPLPLTEATPLLERIITHVDRFFTRHQQKLERLTSIAITLPGIIDTENGVVHRMPYYEDVKEMPLGDSLERHTGVPVYIQHDISAWTMAEALFGASRGARDVIQVVIDHNVGAGVITDGHLLHAGSSSLVEIGHTQVDPYGKRCYCGNHGCLETIASVDSVLELTQLRLNQSMSSMLHGQPLTVDSLCQAAMQGDLLAKDIISGVGAHVGRILAIMVNLFNPQKILIGSPLSKAADILFPAIADSIRQQALPAYSRNTVVESTQFTNQGTMAGAALVKDAMYNGSLLIRLLQG,not soluble
6,MAHHHHHHMAERKVLNKYIPPDFDPDKLMESKKLLKKIEKRKNRNQNKTKKKLMNIRMMYPFTLKCNKCKTFTYVGTKFNSRVEKLKDETYLNIPIWKFYGKCQECKNEIIFKTDPKNGDYLLIAGGTRTYDAHKEQELADDYYRNSNVKDEDKIKNTEKQSYNAMLELKMNEQLEELQNMNKRHLDKFSSINKALNRLYEKSELENKENNFFMNNLDSEDEKAFFSLLNKSRSSKDHIGDNLNKYNPSNNNWVNKNIEKDNIIIEEVELDDNKNNNDEVNEYISEGEGEHSDGNNINEVNESFSDLLLKKKKNRYEKENTVKIKQGNIDTEDKPKDNQQDKTNNISFKNTISNNSSSFSNIIHKPMFNKINKETNFNFVIKKKENFQSLLSEYNSDNSNESDN,not soluble
7,MAHHHHHHMQLLHAQQEGMKNIRQSEASHSDENDKKERGTRSGSTTGTCSEFDVCAVYDDDDVPLAAQFVRSCPPLTDPSWAMEELLRINSHVAVWTGSALPNSVWALPGSGHCPFGSTDADFARIR,not soluble
8,MGSSHHHHHHSSGRENLYFQGHMASQLTDAFARKFYYLRLSITDVCNFRCTYCLPDGYKPSGVTNKGFLTVDEIRRVTRAFARLGTEKVRLTGGEPSLRRDFTDIIAAVRENDAIRQIAVTTNGYRLERDVASWRDAGLTGINVSVDSLDARQFHAITGQDKFNQVMAGIDAAFEAGFEKVKVNTVLMRDVNHHQLDTFLNWIQHRPIQLRFIELMETGEGSELFRKHHISGQVLRDELLRRGWIHQLRQRSDGPAQVFCHPDYAGEIGLIMPYEKDFCATCNRLRVSSIGKLHLCLFGEGGVNLRDLLEDDTQQQALEARISAALREKKQTHFLHQNNTGITQNLSYIGG,soluble
9,VLLAIDVRNTHTVVGLLSGMKEHAKVVQQWRIRTESEVTADELALTIDGLIGEDSERLTGTAALSTVPSVLHEVRIMLDQYWPSVPHVLIEPGVRTGIPLLVDNPKEVGADRIVNCLAAYDRFRKAAIVVDFGSSICVDVVSAKGEFLGGAIAPGVQVSSDAAAARSAALRRVELARPRSVVGKNTVECMQAGAVFGFAGLVDGLVGRIREDVSGFSVDHDVAIVATGHTAPLLLPELHTVDHYDQHLTLQGLRLVFERNLEVQRGRLKTAR,soluble
10,GMSYQNANYSAFYVSEPFSESNLGANSTHDFVYYNMLRMWKGEDNSFPFNDAHDKTYNVRDGSDWEKTLKPRLHTRLDNSKNIILFLSSITANSRALREEMNYGIGTKGLPVIVIYPDYDKKSDIVDSNGNFKKQIKDLWDKLPAFRDNMSSVATLHIPCTKSVIISALNNEDFMVNTMADAEKYYYKP,soluble
11,MKGDVSPIFSPKHLQFKRPTLWRYGRIQKISIMSSKRSSPTGKLRLLSFLRDLLEDESNSDIIYWFDKSESVFKMSKPHKVAELWGAATGNPGMNYDKMSRGLRYFYTNNTLEKVPGKDARYRFIDSPRHSFLDFSMKTELETPVKRTPLFNISNLISDFEVSNNSLTSSPTSSASSVEPSSPTTTESSLDPSQFVQLTQNLVQFNTFMSQNPMFHTLPLPTQLQVFFNFKTIFPSLFPALV,not soluble
12,MTNLNYQQTHFVMSAPDIRHLPSDCGIEVAFAGRSNAGKSSALNTLTNQKSLARTSKTPGRTQLINLFEVVDGKRLVDLPGYGYAEVPEEMKRKWQRALGEYLEKRQSLQGLVVLMDIRHPLKDLDQQMIQWAVESNIQVLVLLTKADKLASGARKAQLNMVREAVLAFNGDVQVEAFSSLKKQGVDKLRQKLDSWFSELAPVEEIQDGE,not soluble
13,MGREMMELNENRALAGGRTGSLRNIKRPLAITEAERQAVRDINLAHLDITSIDFDLFYLRENMELPLDAAAAVAYRLIVGTGLPQKLRCRDDTLLNFILQCRKKYRNVPYHNFYHVVDVCQTIYTFLYKGAVCEKLTELDCFVLLVTALVHDLDHMGLNNSFYLKTDSPLGILSSASGNASVLEVHHCNLAVEILSDPDSDVFEGLDAADRTLAYRSMIDCVLATDMAKHNELLNLFLAAMEKPYQIGDVASRQMMMDVIVKAGDVSNVTKPFDISRLWAMAVTEEFYRQGDMEKEKGVEVLPMFDRSKNTELAKGQIGFIDFVAGPFFKKIVSASLTGMQWTVERVESNRLEWQRTLDVKAAGDGNK,soluble
14,MGSDKIHHHHHHMKKLNLQCDLFNNNNLNFSDKGPLQDVFIDKKIIKEWQAKIITHQSPIFKSGHIDVNQYSLFESSSDELNASFNPIELTPLPLSFWRWPKAMHEGPAVYFVMDEIIDSGENIILYIGETISAEKRWKGEHDCKDYISSYSDSLHKANVKAKLSIRFWLDVPTKTKERRKLEQKLIQAWLPPFNKETREIWATPFTSQIN,not soluble
15,MERKWIKKKAHIVPTHAMYGLAQVLKDIGIDVISLVNYALNLHDYHYNGFEPGFSRYSKKEEVFRDLITLVKETRKVIDIYYSKYEVKEILGKINELIKELTEGNKLEHHHHHH,not soluble
16,MGSDKIHHHHHHMPSIFEKYQLKQVINASGRMTALGVSTPRPEVIDAAMAGMNQYFEMKDLVNKTGEYIAKLLEVEGATVVSCASAGLAQSVAAVLVQDSDWLLENLHVTPIENNEIVLPKGHNVNFGAPVGTMVALGGGKLVEAGYANECSAAQLAAAITPRTAAILYIKSHHCVQKSMLSVEQAAVVARTHNLPLIVDAAAEEDLQCYYRVGADLVIYSGAKAIEGPTSGLVIGKTQYVEWVKRQSAGIGRAMKVGKEGIVGLTCAIELYLRAQKESGAEMVEKMAPFIDTLNTFNGVSARVVWDSAGRDIARTEIKFDEAVTGIATGELVDALKQGEYAIYFRGYKANEGIIEADVRSVDRAQLAIVARRIGEVINQEKQA,not soluble
17,MAHHHHHHMGNKISTEDHIFRLKLKTKELEKLSQRSELEEKKLIGDVKKAIQAGKIELARLYAEKCIRKKNEKVNYLNLSNKLDVLVSRLEGAHRCASLVKDVGVMIPLIQKINAETNAIKIGNDVTKLENIFDEISISSELINDTVQTSSAISAPTEEVDELISKIADEHALKLDGQIGSVHPINKHLEEISNMSERIKNLK,soluble
18,MGNARGFLDFKRMDFKKIAPKERILNYKEFTIPLDKKEQEVQGGRCMDCGVAFCHTGVMSEGKDVGCPLNNLIPEWNDLVYRSLWKEAYERLDLTNPFPEFTGRVCPAPCEDSCVCAINGVSVSIKNNELSIIENAFKENLVRVNKPKQYNGKKIAVIGSGPAGLACANTLNSLGYKVSVFERSDKIGGLLMYGIPDMKLDKSIVQRRVDLLKKSGIEFKVNENIDSKDKVSKLLKEFDALVLCTGASKPIDLDIEGRKLKGVEFALDFLTQNTKTLLKTGKGADMAKGKNVLVIGSGDTSVDCIAVATRQGAKSIVRFERSPKRPLQRSQNNPWPLKADIFTTDYGLEEAIAVYGKDPREYQKMTKKFLGKTHVEGVEANDLKREFKEGKAINVEISNSKKTYKADLVLLAMGFSGCEEAISKNFGVKLDEKNNISTENFQTTHKKIFACGDARKGQSLVVWAIKDGIECALSLHQNLAKLEHHHHHH,not soluble
19,AIIVKKTTEIEQTHKDYDPYQILGLDQGADEKAIKKAWRDMSKIHHPDRGGDAQFFDKIAKAHQALTDKEARENWEKYGNPDGPTATTFGIALPKWLVSKEYGL,not soluble
20,MHDFVGFMNKISQINRDLDKYDHTINQVDSLHKRLLTEVNEEQASHLRHSLDNFVAQATDLQFKLKNEIKSAQRDGIHDTNKQAQAENSRQRFLKLIQDYRIVDSNYKEENKEQAKRQYMIIQPEATEDEVEAAISDVGGQQIFSQALLNANRRGEAKTALAEVQARHQELLKLEKSMAELTQLFNDMEELVIEQQ,soluble
21,MIARGSRAPRCPQCRVIDSYCLCAWRPTVAAESGMCLLMYDTEPMKPTNTGWLIADVIKDTYAFGWSRVEIDAHLRALLDDPQWQPYIVFPGEFVAQERVVAEVAREDGKRPLFILLDATWNEARKMFRKSPYLEKFPVLSLAPEQISRYRLRRSKRDDHFCTAEVAALCLELAGDVSASGVLDAYLDVFSAHYLGAKFQRPIDPDDVAHTYLKAFILEHHHHHH,not soluble
